Results on four molecules are retold here after paper PMC4634974, “Carbon Catabolite Repression and the Related Genes of ccpA, ptsH and hprK in Thermoanaerobacterium aotearoense” (PLoS ONE, 2015).

The target of test [1] is catabolite control protein A (CcpA) from T. aotearoense SCUT27 with a C-terminal His-tag (Thermoanaerobacterium aotearoense SCUT27) (UniProt T1SCF9). As to the kind of experiment: SPR; SPRi (Plexera V3), 25°C; CcpA printed as spots on gold-coated sensor slides by amine coupling; HPr, HPrSerP or HPrM flowed as analytes at 2 μL/s, association and dissociation 300 s each; PBST pH 7.2 running buffer; BSA as reference; Langmuir binding model. (In general: In SPR one partner is held on a chip, and binding of the other changes the refractive index at the surface.)

Test [2] concerns the target T1, HPrK/P (HPr kinase/phosphatase) (Thermoanaerobacterium aotearoense, UniProt A0A0S1LJ76).
T1 construct: protein substrate recombinant HPr (KR818834) of the same strain
T1 sequence (A0A0S1LJ76 1-304): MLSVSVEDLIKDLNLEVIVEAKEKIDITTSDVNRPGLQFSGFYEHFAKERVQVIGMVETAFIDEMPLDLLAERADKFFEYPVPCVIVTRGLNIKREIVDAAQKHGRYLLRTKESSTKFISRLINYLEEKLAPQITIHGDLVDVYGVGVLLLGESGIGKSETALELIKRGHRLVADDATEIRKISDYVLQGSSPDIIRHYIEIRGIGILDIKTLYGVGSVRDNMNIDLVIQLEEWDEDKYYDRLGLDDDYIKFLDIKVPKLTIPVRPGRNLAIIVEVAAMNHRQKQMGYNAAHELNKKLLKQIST
Briefly: HPr phosphorylation, Phos-tag SDS-PAGE. Type of test: biochemical. The following applies: 5 mM ATP, 50 uM HPr, 5 mM MgCl2, 10 mM NaCl, 100 mM Tris-Cl pH 7.0, 37 C, 10 min.

The target in test [3] is T2, catabolite control protein A (CcpA) from T. aotearoense SCUT27 with a C-terminal His-tag (Thermoanaerobacterium aotearoense SCUT27, UniProt T1SCF9 1-336).
T2 construct: CcpA, catabolite control protein A, Thermoanaerobacterium aotearoense SCUT27; ORF of 336 amino acids (ccpA gene, 1011 bp, GenBank KC899078); full-length gene cloned into pET30a (NdeI/XhoI); The genomic primer begins with GTG, the expression primer Tc-F with ATG; Cloning through XhoI of pET30a probably adds LE before the His-tag (surmised); also called pET-CcpA product; source: E. coli BL21(DE3), …
Briefly: SPR; SPRi (Plexera V3), 25°C; CcpA printed as spots on gold-coated sensor slides by amine coupling; HPr, HPrSerP or HPrM flowed as analytes at 2 μL/s, association and dissociation 300 s each; PBST pH 7.2 running buffer; BSA as reference; Langmuir binding model. The following applies: both partners purified.

Residue numbers refer to the chain shown, from its start.

T2 sequence (T1SCF9 entry or part of it): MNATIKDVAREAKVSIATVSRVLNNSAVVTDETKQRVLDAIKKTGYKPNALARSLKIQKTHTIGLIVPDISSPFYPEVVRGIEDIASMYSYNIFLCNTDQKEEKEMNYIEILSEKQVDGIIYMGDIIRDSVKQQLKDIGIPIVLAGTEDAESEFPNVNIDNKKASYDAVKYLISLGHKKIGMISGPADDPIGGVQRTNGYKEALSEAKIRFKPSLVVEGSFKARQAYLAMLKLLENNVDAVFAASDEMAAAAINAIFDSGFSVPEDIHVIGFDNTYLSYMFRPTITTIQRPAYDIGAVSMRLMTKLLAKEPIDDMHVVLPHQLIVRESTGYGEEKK
Sequence of catabolite control protein A (CcpA) from T. aotearoense SCUT27 with a C-terminal His-tag (Thermoanaerobacterium aotearoense SCUT27) (T1SCF9 entry or part of it): as above

Take “Histidine-containing Protein (HPr) from T. aotearoense SCUT27 with a C-terminal His-tag, not phosphorylated (natural protein)”: in test [1], the equilibrium dissociation constant (Kd) (in general, a measure of binding affinity in units of concentration) was determined as 2.29 µM; the koff (usually the first-order rate constant of dissociation) is 0.000922 s⁻¹; the kon (commonly the rate constant with which the complex forms) amounted to 403 M⁻¹ s⁻¹.
`Nc1ncnc2c1ncn2[C@@H]1O[C@H](COP(=O)(O)OP(=O)(O)OP(=O)(O)O)[C@@H](O)[C@H]1O` [ATP]: the “HPr phosphorylation, Phos-tag SDS-PAGE” value in test [2] is “HPrK/P lost its kinase activity when there was no ATP in the reaction mixture”.

B1: HPrM, HPr from T. aotearoense SCUT27 with Ser46 mutated to Ala, C-terminal His-tag (natural protein)
chain: MTEKTVEIKNKTGLHARPAALFVQAASKFSSQIWVEKENKKVNAKAIMGIMSLGVAQGNTVKLIADGSDEQEAIKTLVDLIDSKFGEE
In test [3], B1 gave a Kd of 6.01 µM, a koff of 0.000576 s⁻¹ and a kon of 95.8 M⁻¹ s⁻¹.

B2: seryl-phosphorylated HPr (HPrSerP) from T. aotearoense SCUT27 with a C-terminal His-tag (natural protein, Thermoanaerobacterium aotearoense SCUT27, UniProt A0A0S1LJA4 1-88, looked up)
chain: B1 chain with A46S
modifications: phosphoserine at 46
notes: HPr, histidine-containing protein, Thermoanaerobacterium aotearoense SCUT27; ORF of 88 amino acids (ptsH gene, GenBank KR818834); full-length gene cloned into pET30a (NdeI/HindIII); phosphorylated at Ser46; Same chain as m3, phosphorylated at Ser46 by recombinant HPrK/P; also called HPrK/P treated HPr; source: E. coli BL21(DE3), purified (HiTrap Chelating HP, desalting column), phosphorylated in …
As to B2, in test [3], binding was characterised by a dissociation constant (Kd) of 0.00222 µM, the koff came out at 7.78e-07 s⁻¹ and the kon is 350 M⁻¹ s⁻¹.
